Assay results: article PMC10743139, “Discovery and Engineering of a Novel Bacterial L-Aspartate α-Decarboxylase for Efficient Bioconversion” (Foods, 2023)

B1: CjADC (CorJei), L-aspartate α-decarboxylase from Corynebacterium jeikeium (Corynebacterium jeikeium K411) (protein)
chain 1: MLRTMLKSKIHRATVTQADLHYVG
chain 2: SCTIDADLMEAADILEGEQIDIVDIDNGNRLTTYAITGDRGTGVIGINGAAARLISPGDLVIIIGYAQYSEEDLKNYASRVVFVDGNNKQVELGGDPAQVPDGSGLKNPRHPEA
B2: LisMon, ADC from Listeria Monocytogenes (Listeria monocytogenes EGD-e) (protein)
chain 1: MFRTMMNGKIHRATVTEANLNYVG
chain 2: SITIDSAILEAVDMLPNEKVQIVNNNNGARIETYIIPGEPGSGVICLNGAAARHVQVGDVVIIMSYGMFTDEEAKTHEPKIVVLDEKNHIEMILPEEKAHTTL
B3: BsADC (BacSub), ADC from B. subtilis (Bacillus subtilis subsp. subtilis str. 168) (protein)
chain 1: MYRTMMSGKLHRATVTEANLNYVG
chain 2: SITIDEDLIDAVGMLPNEKVQIVNNNNGARLETYIIPGKRGSGVICLNGAAARLVQEGDKVIIISYKMMSDQEAASHEPKVAVLNDQNKIEQMLGNEPARTIL
B4: BacThe, ADC from Bacteroides thetaiotaomicron (Bacteroides thetaiotaomicron VPI-5482) (protein)
chain 1: MMIEVLKSKIHCARVTEANLNYMG
chain 2: SITIDEDLLDAANMIPGEKVYIADNNNGERFETYIIKGERGSGKICLNGAAARKVQPDDIVIIMSYALMDFEEAKSFKPTVIFPDPATNSVVK
B5: CorGlu, ADC from Corynebacterium glutamicum (Corynebacterium glutamicum ATCC 13032) (protein)
chain 1: MLRTILGSKIHRATVTQADLDYVG
chain 2: SVTIDADLVHAAGLIEGEKVAIVDITNGARLETYVIVGDAGTGNICINGAAAHLINPGDLVIIMSYLQATDAEAKAYEPKIVHVDADNRIVALGNDLAEALPGSGLLTSRSI

Key:
N[C@@H](CC(=O)O)C(=O)O = assay: HPLC of beta-alanine, Michaelis-Menten fit; type: biochemical, Corynebacterium jeikeium; conditions: sodium L-aspartate 1-100 mM, pH 7.0, 37 °C, 5 min
Excerpt: HPLC of beta-alanine, Michaelis-Menten fit on CjADC (CorJei), L-aspartate α-decarboxylase from Corynebacterium jeikeium

purified protein = substrate: N[C@@H](CC(=O)O)C(=O)O; assay: purified protein; conditions: sodium L-aspartate 1-100 mM, pH 7.0, 37 °C, 5 min

Row | Molecule | Km (N[C@@H](CC(=O)O)C(=O)O) | kcat (N[C@@H](CC(=O)O)C(=O)O) | kcat/Km (N[C@@H](CC(=O)O)C(=O)O) | Km (purified protein)
1 | CjADC (CorJei), L-aspartate α-decarboxylase from Corynebacterium jeikeium (Corynebacterium jeikeium K411; C26V/I88M) | 3.6 ± 0.2 mM |  |  | 
2 | CjADC (CorJei), L-aspartate α-decarboxylase from Corynebacterium jeikeium (Corynebacterium jeikeium K411; C26V/I88M/R3K/Y90F) | 2.2 ± 0.5 mM | 209.2 ± 0.8 s⁻¹ | 95100 ± 1600 M⁻¹ s⁻¹ | 
3 | CjADC (CorJei), L-aspartate α-decarboxylase from Corynebacterium jeikeium (Corynebacterium jeikeium K411; C26V/I88M/Y90F) | 2.6 ± 0.6 mM | 171.5 ± 0.8 s⁻¹ | 61200 ± 1300 M⁻¹ s⁻¹ | 
4 | CjADC (CorJei), L-aspartate α-decarboxylase from Corynebacterium jeikeium (Corynebacterium jeikeium K411; C26V/Y90F) | 4.1 ± 0.3 mM |  |  | 
5 | CjADC (CorJei), L-aspartate α-decarboxylase from Corynebacterium jeikeium (Corynebacterium jeikeium K411; I88L/Y90F) | 3.9 ± 0.1 mM | 88.6 ± 2.8 s⁻¹ | 22700 ± 500 M⁻¹ s⁻¹ | 
6 | CjADC (CorJei), L-aspartate α-decarboxylase from Corynebacterium jeikeium (Corynebacterium jeikeium K411; I88M/Y90F) | 3.2 ± 0.4 mM |  |  | 
7 | B1 |  |  |  | 3.6 ± 0.2 mM
8 | B2 |  |  |  | 6.0 ± 0.2 mM
9 | B3 |  |  |  | 4.2 ± 0.3 mM
10 | B4 |  |  |  | 8.9 ± 0.4 mM
11 | B5 |  |  |  | 4.5 ± 0.1 mM
